Measurements from PMC12436196.

Biological target: NPM1 (UniProt P06748)
Test: Co-IP of Flag-MST4 with HA-NPM1
Settings: reference: Flag-MST4 wild type; sites T178

## MST4 (from UniProt Q9P289) Flag-MST4 T178A
  binding against the reference: weaker
